For assay [1], the target named is T1, MLO-Y4 cell surface proteins (Mus musculus, UniProt O88492).
T1 construct: endogenous in cells; host or cells: MLO-Y4
T1 sequence (O88492 1-1403): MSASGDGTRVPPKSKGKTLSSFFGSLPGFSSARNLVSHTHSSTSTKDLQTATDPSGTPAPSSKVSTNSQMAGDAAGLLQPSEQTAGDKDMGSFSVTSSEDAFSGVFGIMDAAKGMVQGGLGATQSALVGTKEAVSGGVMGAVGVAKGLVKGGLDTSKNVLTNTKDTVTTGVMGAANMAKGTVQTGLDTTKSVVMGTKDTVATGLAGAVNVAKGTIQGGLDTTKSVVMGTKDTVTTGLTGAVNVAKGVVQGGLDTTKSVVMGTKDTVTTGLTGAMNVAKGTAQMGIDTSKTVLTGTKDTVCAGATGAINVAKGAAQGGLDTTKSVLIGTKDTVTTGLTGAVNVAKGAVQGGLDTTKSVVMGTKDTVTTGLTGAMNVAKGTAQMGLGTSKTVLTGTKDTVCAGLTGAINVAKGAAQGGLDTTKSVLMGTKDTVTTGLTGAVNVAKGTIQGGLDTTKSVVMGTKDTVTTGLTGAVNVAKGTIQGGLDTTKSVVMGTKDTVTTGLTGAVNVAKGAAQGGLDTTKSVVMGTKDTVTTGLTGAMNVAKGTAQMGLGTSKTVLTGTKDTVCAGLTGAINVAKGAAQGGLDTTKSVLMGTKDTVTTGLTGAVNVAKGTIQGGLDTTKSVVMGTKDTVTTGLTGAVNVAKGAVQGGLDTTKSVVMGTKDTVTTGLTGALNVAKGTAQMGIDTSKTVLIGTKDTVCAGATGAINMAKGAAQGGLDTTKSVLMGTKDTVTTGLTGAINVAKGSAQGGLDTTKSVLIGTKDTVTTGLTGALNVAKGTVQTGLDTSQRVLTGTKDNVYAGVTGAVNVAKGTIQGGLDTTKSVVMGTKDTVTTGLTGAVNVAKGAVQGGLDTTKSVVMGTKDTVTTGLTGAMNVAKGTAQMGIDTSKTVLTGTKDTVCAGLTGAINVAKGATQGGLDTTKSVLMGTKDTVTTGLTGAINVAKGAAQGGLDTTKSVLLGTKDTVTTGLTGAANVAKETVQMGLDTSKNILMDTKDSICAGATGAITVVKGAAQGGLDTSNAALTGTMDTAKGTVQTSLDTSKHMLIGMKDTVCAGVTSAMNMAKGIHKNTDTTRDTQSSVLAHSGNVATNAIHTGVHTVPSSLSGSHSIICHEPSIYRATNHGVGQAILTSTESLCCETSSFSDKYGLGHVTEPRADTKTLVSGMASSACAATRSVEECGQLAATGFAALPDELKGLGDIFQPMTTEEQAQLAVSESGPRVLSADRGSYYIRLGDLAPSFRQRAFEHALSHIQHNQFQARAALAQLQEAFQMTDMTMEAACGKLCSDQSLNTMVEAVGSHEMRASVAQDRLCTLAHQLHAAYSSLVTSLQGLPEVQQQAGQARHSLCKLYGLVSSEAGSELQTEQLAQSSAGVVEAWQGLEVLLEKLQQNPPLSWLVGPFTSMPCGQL
Put plainly: Crosslinking/co-immunoprecipitation/mass spectrometry (TMT quantitative proteomics) to identify irisin receptors. Type of assay: binding. The following applies: co-precipitated protein Plin4 (PLIN4_MOUSE). The gist of the method: (§1)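 Mouse MLO-Y4 cells were switched to serum-free FreeStyle medium for 4 h, chilled, then exposed to 10 nM His-tagged irisin (or adipsin as control) for 20 min. Cells were crosslinked with 1.5 mM DTSSP (30 min, ice), and bound proteins were pulled down on Ni-NTA and eluted with 250 mM imidazole. Eluates were separated by SDS-PAGE, trypsin-digested in gel, TMT 6-plex labelled and quantified by MS3-based LC-MS/MS on an Orbitrap Fusion Lumos.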

Assay [2] deals with T2, MLO-Y4 cell surface proteins (Mus musculus, UniProt Q9D125).
T2 construct: endogenous in cells; host or cells: MLO-Y4
The assay is described as above. Type of assay: binding. The note with it: co-precipitated protein Mrps25 (RT25_MOUSE). The method, boiled down:
as §1

For the substance adipsin, the TMT signal-to-noise ratio in assay [1] is listed as 111.989; in assay [2], 84.7592.

(Values after patent US20210063414A1, “METHODS FOR PREVENTING AND/OR TREATING BONE LOSS CONDITIONS BY MODULATING IRISIN” (Dana-Farber Cancer Institute, Inc., priority 2018, published 2021).)
